According to the supplement of paper PMC9170038:

Test system: MS2 coat protein
Assay: apparent KD of MS2 coat protein; designed switch direction (-1 OFF switch, 1 ON switch): 1; higher = weaker reporter binding
Method in brief: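 SNAP-549-labelled MS2 coat protein was titrated, doubling from 0.7 or 1.5 nM to 3 µM, over designed RNA switches transcribed on Illumina chips by stalled E. coli RNA polymerase. Runs were done without input, with 200 uM small-molecule ligand, or with an oligonucleotide input. Apparent KD is the per-design median over clusters of curve-fitted normalised fluorescence.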

[1] = input ligand: microRNA oligo, concentration not stated
[2] = Eterna round: R95, input ligand: FMN 200 uM
[3] = Eterna round: R95, input ligand: microRNA oligo, concentration not stated
[4] = Eterna round: R95, input ligand: none

Sequence | apparent KD of MS2 coat protein (input ligand: FMN 200 uM) [nM] | apparent KD of MS2 coat protein [1] [nM] | apparent KD of MS2 coat protein (input ligand: none) [nM] | apparent KD of MS2 coat protein [2] [nM] | apparent KD of MS2 coat protein [3] [nM] | apparent KD of MS2 coat protein [4] [nM]
ACAUGAGGAUCACCCAUGUAACACCUGAAAAUAAAACGAACACAGGAUAUCCCAGCAUGACGCCGGGAGAAGGGUGAUCGAAGA [Quorer] (Eterna round: R96, puzzle: Same State NG 3) | 124 | 118 | 52.8 | – | – | –
AGGCUCAGACGAGGAUAUGAUCAUGGCGCUUCGGCGCAUACAUGAGGAUCACCCAUGUAGGGUGAUCAGAAGGUGUCUGAGCCA [SSNG2/8-B1] (Eterna round: R96, puzzle: Same State NG 2) | 92.1 | 505 | 1210 | – | – | –
GGUAAGAAUUAAGGAUAUCGAGUACAUAUGUUUAACAUGAGGAUCACCCAUGUGGGUUGCGGUAUCGAGAAGGUAAAUUACAAG [Mat - same State NG 2 - JL mod - D62] (Eterna round: R96, puzzle: Same State NG 2) | 40.7 | 35.7 | 41.8 | – | – | –
UGGCUCAGACGAGGAUAUAUGUCUCGAGCUUCGGCUCGAGACAUGAGGAUCACCCAUGUAAUAACAUAGAAGGUGUCUGAGCCU [SSNG2/1-C3] (Eterna round: R96, puzzle: Same State NG 2) | 42.9 | 226 | 388 | – | – | –
AAGAAAUCCGCAGGAUAUCCUAAGCCGGACUUAGGAGAAGGGUGGCCACAUGAGGAUCACCCAUGUAAAAGCUGAAUCACAGCC [Vetianeste] (Eterna round: R96, puzzle: Same State NG 1) | 554 | 385 | 497 | – | – | –
GCGCAAUGAUGUGACAUGAGGAUCACCCAUGUAACCUCAUGUAAGGAUAUCGGGAAAAAAAAAACCGAGAAGGUAUGGUCACGC [AK SSNG3-V2-27.2] (Eterna round: R96, puzzle: Same State NG 3) | 145 | 61.4 | 138 | – | – | –
GCACAUGAGGAUCACCCAUGUGCGCUUGGUUGUCCAAGCGCACAGGAUAUACCUCCCAAUGGGAGGUAGAAGGGUGAAAAGAAA [Orraveceat] (Eterna round: R96, puzzle: Same State NG 3) | 12.4 | 10.9 | 16 | – | – | –
GCGAGCGUACUUGCAACAUGAGGAUCACCCAUGUUAACUGGACAGGAUAUGGUACCGUUUCGGUACCAGAAGGGUUUUUCAUGG [JL SSNG3 3.64] (Eterna round: R96, puzzle: Same State NG 3) | 85.6 | 50.6 | 74.3 | – | – | –
GGUCCAGCCUGAGCUGGACAAAAGCAUGUACAUGAGGAUCACCCAUGUCAUGUGCAAGCUUUUUGCUCGUCUUAAAA [JL mod - D87 - 4] (puzzle: Sensor for hsa-mir-208a) | – | – | – | 67.3 | 11 | 73.4
UGUUGUAUUACAGGAUAUCUAUUGUUUUUAUUUAGAGAAGGGUAUUCACAUGAGGAUCACCCAUGUAUAUACGAGGAAGUUGUG [JMF's solution 12] (Eterna round: R96, puzzle: Same State NG 1) | – | 40.6 | – | – | – | –
CCGAUUUAUGGAGGAUAUGGAGCCUUAUUGGCUCCAGAAGGUCAAUACAUGAGGAUCACCCAUGUGUCGGCGGUCAAUAGACCG [Eli NG1ss - 72] (Eterna round: R96, puzzle: Same State NG 1) | 61.7 | 44.2 | 128 | – | – | –
GUGGUCAGACAUGAGGAUCACCCAUGUGGAAUAAAUAAGGAGAAGGAUAUCGAAUAUAGGAUAUACGAGAAGGUCUGGUUGGUG (Eterna round: R96, puzzle: Same State NG 3) | – | 75.2 | – | – | – | –
UAGUGAUUGCAAGGAUAUGCUUGUGUUUUAUUUUUUUUAAUAUCUAACAUGAGGAUCACCCAUGUGCAGAAGGUGCUUGAUUUG [JR_SSNG2_Sub076] (Eterna round: R96, puzzle: Same State NG 2) | – | 46.5 | – | – | – | –
UCAAGCGAAAGGCUCGUCUUAUGCAAGAAACAUGAGGAUCACCCAUGUGAGGGACGAUUGAGUUAGAUGGAAUGGAA [JR_SHM208A_Sub031] (puzzle: Sensor for hsa-mir-208a) | – | – | – | 24.7 | 66.6 | 25
AGGGAGGAAGCUGAGGAUAUCGUAAGGAGGACAUGAGGAUCACCCAUGUGUGUAGAAUUGGAGGACGAGAAGGCAGAGGAGUGGG [JR_SS2_Sub053] (puzzle: Same State 2) | – | – | – | 34 | 21.3 | 37
CGAGCCGGCACUGAGGAUAUUCAUAUUUAAACAUGAGGAUCACCCAUGUAGGCCAGAAGGCCUUGGGAGAAGGCAGGUCGGCUCC [salish99_ss2_r3_080] (Eterna round: R96, puzzle: Same State 2) | 22.3 | 220 | 312 | – | – | –

Sequence | apparent KD of MS2 coat protein (input ligand: FMN 200 uM) [nM] | apparent KD of MS2 coat protein [1] [nM] | apparent KD of MS2 coat protein (input ligand: none) [nM] | apparent KD of MS2 coat protein [2] [nM] | apparent KD of MS2 coat protein [3] [nM] | apparent KD of MS2 coat protein [4] [nM]
ACAUGAGAGAUAGGAUAUGCUGUACCUACAUGUGACAUGAGGAUCACCCAUGUGGUAAGUAUGAGGCAGAAGGAUCAGAUAUGU [Equivalence 49 - Jieux - Same State NG 2] (Eterna round: R96, puzzle: Same State NG 2) | 13.6 | 17.3 | 23.2 | – | – | –
AGUCCUGAAUAAAUUAAACAGAGACAUGUACAUGAGGAUCACCCAUGUCAUGUGCAAGUUUUAUGCUCGUCAUAUAA [Sensorship 18 - Jieux - Sensor for hsa-mir-208a] (puzzle: Sensor for hsa-mir-208a) | – | – | – | 13 | 8.35 | 12.8
UCUUGGUUUUUGCUCGUUUUUUGUGUUGAACAUGAGGAUCACCCAUGUAUUGUACGGUCCGGUUUAAUAGUGGUCCA [JMF 43] (puzzle: Sensor for hsa-mir-208a) | – | – | – | 95.4 | 59.8 | 105
CAGCACUGUCGAGAGGAUAUGCGGUGGUAGACAUGAGGAUCACCCAUGUUAGCGACAGCAUCACGGCAGAAGGCUCUGCUGCUGC [Soteed Omei mod 41] (puzzle: Same State 2) | – | – | – | 37.3 | 96.2 | 146
AUUAAACAUGAGGAUCACCCAUGUCAACAAAGUCGAGGAUAUGGGCAAAUAAAAUAAGAACCAGAAGGCGAAUAAU [salish99_ss1_r3_048] (Eterna round: R96, puzzle: Same State 1) | – | 193 | – | – | – | –
CGUCCAGCCUGAGCUGGACAAAAGCAUGUACAUGAGGAUCACCCAUGUUCAUGUACAAGCUUUUUGCUCGUCUUAGA [salish99_208a_r3_072] (puzzle: Sensor for hsa-mir-208a) | – | – | – | 477 | 15.3 | 432
GUGCUCGUGUAAGGAUAUGCAGCCGUUUCGGCUGCAGAAGGUACUAUAAUACAUGAGGAUCACCCAUGUCUCUAUUGUUUGGUG [salish99_SSNG1_r04_906] (Eterna round: R96, puzzle: Same State NG 1) | – | 76.3 | – | – | – | –
AUAAAACAUGAGGAUCACCCAUGUAAUCGCCAGACAGGAUAUAUAGUGGCAUUUGCAGGGAUAGAAGGGUCGUGGC [Lerainxege] (puzzle: Same State 1) | – | – | – | 15.6 | 35.1 | 37
AGAUGUUAAUCAGGAUAUGGGCACAUGAGGAUCACCCAUGUAAAUUCGAUACUAUGUGGACACGUCUAGAAGGGAUGGCUAACA [SameState NG2 #83] (Eterna round: R96, puzzle: Same State NG 2) | 125 | 73.5 | 106 | – | – | –
AAUUAACAUGAGGAUCACCCAUGUCGUAUUAUGGGAGGAUAUACGUGGACCGUAGUCCGCGUAGAAGGCCUAAUUA [Mat - Same State 1 - Mod of JL - D21] (puzzle: Same State 1) | – | – | – | – | 34.6 | –
AUUACUAACAUAGGAUAUCAUGCGAAAAUUGCGUGAGAAGGGUGGACGCUGUCAUUCUCGGAGGACAUGAGGAUCACCCAUGUC [SameState NG1 #71] (Eterna round: R96, puzzle: Same State NG 1) | 118 | 103 | 90.7 | – | – | –
GGAUGAUAGACAGGAUAUUGAUUGUAAUUAGGUCAAGAAGGGUCUUUGAUUUAAACGACCAGUUACAUGAGGAUCACCCAUGUU [JR_SSNG1_Sub028] (Eterna round: R96, puzzle: Same State NG 1) | 82.5 | 65.9 | 201 | – | – | –
GAGUGGUAAAGAGGAUAUGCAUUGUUAUUAAAUGCAGAAGGUUUUAACAUGAGGAUCACCCAUGUAGGACUAUUCCUGUGUUUC [Parity 65 - Jieux - Same State NG 1] (Eterna round: R96, puzzle: Same State NG 1) | – | 11.4 | – | – | – | –
UUUACUUUCAUAGGAUAUCAUGCGAAAAUUGCGUGAGAAGGGUGAAUACUGUCUUUCUAAGAGUACAUGAGGAUCACCCAUGUA [SameState NG1 #64] (Eterna round: R96, puzzle: Same State NG 1) | 56.9 | 45.8 | 51.2 | – | – | –
AACAAUCUAUCUGAGGAUAUCAUGAAAUAAACAUGAGGAUCACCCAUGUGCUGGAAAACUGCAUAUGAGAAGGCAGAUAGAUUGA [salish99_ss2_r3_037] (puzzle: Same State 2) | – | – | – | 32.1 | 237 | 395
GGCCUGAGUCAAGGAUAUGCUACCGUUUCGGUAGCAGAAGGUGAUCACAUGAGGAUCACCCAUGUUUACGGGAAGACCCGCGCC (Eterna round: R96, puzzle: Same State NG 1) | 1470 | 141 | 489 | – | – | –
